Assay results as given in paper PMC4980427, “Ctf4 Links DNA Replication with Sister Chromatid Cohesion Establishment by Recruiting the Chl1 Helicase to the Replisome” (Molecular Cell, 2016).

Target: the molecule itself
Test: negative-stain single-particle EM of reconstituted assemblies; purified Ctf4 core, GINS and Chl1 mixed in equimolar amounts; reconstituted assemblies on silver-stained gel and two-dimensional class averages

B1: Ctf4 (residues 471–927) (domain or fragment, S. cerevisiae, UniProt Q01454 471-927, looked up)
chain: TGKFRYMPFSPAGTPFGFTDRRYLTMNEVGYVSTVKNSEQYSITVSFFDVGRFREYHFEDLFGYDLCFLNEKGTLFGQSKTGQIQYRPHDSIHSNWTKIIPLQAGERITSVAATPVRVIVGTSLGYFRSFNQFGVPFAVEKTSPIVALTAQNYRVFSVHYSQFHGLSYSLSELGTSSKRYYKRECPLPMSLPNINSDMKKDANLDYYNFNPMGIKSLFFSSYGDPCIFGSDNTLLLLSKWRSPEESKWLPILDSNMEIWKMSGGKETTDIHVWPLALAYDTLNCILVKGKHIWPEFPLPLPSEMEIRMPVFVKSKLLEENKAILNKKNEIGADTEAEEGEEDKEIQIPVSMAAEEEYLRSKVLSELLTDTLENDGEMYGNENEVLAALNGAYDKALLRLFASACSDQNVEKALSLAHELKQDRALTAAVKISERAELPSLVKKINNIREARYEQQLK
notes: Ctf4 C-terminal trimerization core that contains the CIP box acceptor, residues 471-927; also called Ctf4 C-terminal trimerization core; Ctf4 core; source: E. coli, overexpressed, purified
  stoichiometry N: 3
